# According to the supplement of paper PMC10567573:
# B1: RAB22A (parent)
# chain: FVEDSFDPNINPTIGASFMTKTVQ
# Variants of: B1
# Test: protein stability index of a GFP-peptide fusion (GPS, HEK-293T) (PSI 1-6); higher = more stable
# Conditions: c terminus: a fixed tail appended
# 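Also: lentivirally expressed fusions sorted by FACS into six bins by GFP to DsRed ratio, PSI derived from sequencing read proportions per bin multiplied by bin number.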
row,Variant,protein stability index
1,FVEDSFDPQINPTIGASFMTKTVQ [N9Q],2.1
2,FVEDSFDPRINPTIGASFMTKTVQ [N9R],1.95
3,FVEDSFDPSINPTIGASFMTKTVQ [N9S],2.51
4,FVEDSFDPTINPTIGASFMTKTVQ [N9T],2.26
5,FVEDSFDPVINPTIGASFMTKTVQ [N9V],2.04
6,FVEDSFDPWINPTIGASFMTKTVQ [N9W],2.65
7,FVEDSFDPYINPTIGASFMTKTVQ [N9Y],1.72
8,FVEDSFDPNANPTIGASFMTKTVQ [I10A],2.48
9,FVEDSFDPNCNPTIGASFMTKTVQ [I10C],2.14
10,FVEDSFDPNDNPTIGASFMTKTVQ [I10D],2.93
11,FVEDSFDPNENPTIGASFMTKTVQ [I10E],3.02
12,FVEDSFDPNFNPTIGASFMTKTVQ [I10F],2.2
13,FVEDSFDPNGNPTIGASFMTKTVQ [I10G],2.3
14,FVEDSFDPNHNPTIGASFMTKTVQ [I10H],2.48
15,FVEDSFDPNKNPTIGASFMTKTVQ [I10K],2.5
16,FVEDSFDPNLNPTIGASFMTKTVQ [I10L],2.14
17,FVEDSFDPNMNPTIGASFMTKTVQ [I10M],1.99
18,FVEDSFDPNNNPTIGASFMTKTVQ [I10N],2.73
19,FVEDSFDPNPNPTIGASFMTKTVQ [I10P],2.57
20,FVEDSFDPNQNPTIGASFMTKTVQ [I10Q],2.81
21,FVEDSFDPNRNPTIGASFMTKTVQ [I10R],2.1
22,FVEDSFDPNSNPTIGASFMTKTVQ [I10S],2.56
23,FVEDSFDPNTNPTIGASFMTKTVQ [I10T],2.83
24,FVEDSFDPNVNPTIGASFMTKTVQ [I10V],2.21

row,Variant,protein stability index
1,FVEDSFDPNWNPTIGASFMTKTVQ [I10W],1.93
2,FVEDSFDPNYNPTIGASFMTKTVQ [I10Y],2.25
3,FVEDSFDPNIAPTIGASFMTKTVQ [N11A],2.42
4,FVEDSFDPNICPTIGASFMTKTVQ [N11C],2.46
5,FVEDSFDPNIDPTIGASFMTKTVQ [N11D],2.56
6,FVEDSFDPNIEPTIGASFMTKTVQ [N11E],2.58
7,FVEDSFDPNIFPTIGASFMTKTVQ [N11F],1.82
8,FVEDSFDPNIGPTIGASFMTKTVQ [N11G],2.07
9,FVEDSFDPNIHPTIGASFMTKTVQ [N11H],1.85
10,FVEDSFDPNIIPTIGASFMTKTVQ [N11I],2.23
11,FVEDSFDPNIKPTIGASFMTKTVQ [N11K],2.47
12,FVEDSFDPNILPTIGASFMTKTVQ [N11L],1.85
13,FVEDSFDPNIMPTIGASFMTKTVQ [N11M],2.14
14,FVEDSFDPNIPPTIGASFMTKTVQ [N11P],2.43
15,FVEDSFDPNIQPTIGASFMTKTVQ [N11Q],2.48
16,FVEDSFDPNIRPTIGASFMTKTVQ [N11R],1.75
17,FVEDSFDPNISPTIGASFMTKTVQ [N11S],2.04
18,FVEDSFDPNITPTIGASFMTKTVQ [N11T],2.4
19,FVEDSFDPNIVPTIGASFMTKTVQ [N11V],2.24
20,FVEDSFDPNIWPTIGASFMTKTVQ [N11W],2.41
21,FVEDSFDPNIYPTIGASFMTKTVQ [N11Y],2.16
22,FVEDSFDPNINATIGASFMTKTVQ [P12A],2.13
23,FVEDSFDPNINCTIGASFMTKTVQ [P12C],2.06
24,FVEDSFDPNINDTIGASFMTKTVQ [P12D],2.49

row,Variant,protein stability index
1,FVEDSFDPNINETIGASFMTKTVQ [P12E],2.57
2,FVEDSFDPNINFTIGASFMTKTVQ [P12F],2
3,FVEDSFDPNINGTIGASFMTKTVQ [P12G],2.29
4,FVEDSFDPNINHTIGASFMTKTVQ [P12H],2.46
5,FVEDSFDPNINITIGASFMTKTVQ [P12I],1.82
6,FVEDSFDPNINKTIGASFMTKTVQ [P12K],2.42
7,FVEDSFDPNINLTIGASFMTKTVQ [P12L],1.85
8,FVEDSFDPNINMTIGASFMTKTVQ [P12M],1.89
9,FVEDSFDPNINNTIGASFMTKTVQ [P12N],2.15
10,FVEDSFDPNINQTIGASFMTKTVQ [P12Q],2.45
11,FVEDSFDPNINRTIGASFMTKTVQ [P12R],1.81
12,FVEDSFDPNINSTIGASFMTKTVQ [P12S],2.4
13,FVEDSFDPNINTTIGASFMTKTVQ [P12T],2.25
14,FVEDSFDPNINVTIGASFMTKTVQ [P12V],2.18
15,FVEDSFDPNINWTIGASFMTKTVQ [P12W],2.08
16,FVEDSFDPNINYTIGASFMTKTVQ [P12Y],2.37
17,FVEDSFDPNINPAIGASFMTKTVQ [T13A],2.39
18,FVEDSFDPNINPCIGASFMTKTVQ [T13C],1.79
19,FVEDSFDPNINPDIGASFMTKTVQ [T13D],2.71
20,FVEDSFDPNINPEIGASFMTKTVQ [T13E],2.52
21,FVEDSFDPNINPFIGASFMTKTVQ [T13F],1.59
22,FVEDSFDPNINPGIGASFMTKTVQ [T13G],2.15
23,FVEDSFDPNINPHIGASFMTKTVQ [T13H],2.31
24,FVEDSFDPNINPIIGASFMTKTVQ [T13I],1.75

row,Variant,protein stability index
1,FVEDSFDPNINPKIGASFMTKTVQ [T13K],2.29
2,FVEDSFDPNINPLIGASFMTKTVQ [T13L],2.21
3,FVEDSFDPNINPMIGASFMTKTVQ [T13M],1.91
4,FVEDSFDPNINPNIGASFMTKTVQ [T13N],2.19
5,FVEDSFDPNINPPIGASFMTKTVQ [T13P],2.67
6,FVEDSFDPNINPQIGASFMTKTVQ [T13Q],2.44
7,FVEDSFDPNINPRIGASFMTKTVQ [T13R],1.93
8,FVEDSFDPNINPSIGASFMTKTVQ [T13S],2.31
9,FVEDSFDPNINPVIGASFMTKTVQ [T13V],2.29
10,FVEDSFDPNINPWIGASFMTKTVQ [T13W],3.05
11,FVEDSFDPNINPYIGASFMTKTVQ [T13Y],1.73
12,FVEDSFDPNINPTAGASFMTKTVQ [I14A],2.07
13,FVEDSFDPNINPTCGASFMTKTVQ [I14C],2.01
14,FVEDSFDPNINPTDGASFMTKTVQ [I14D],3.19
15,FVEDSFDPNINPTEGASFMTKTVQ [I14E],3.21
16,FVEDSFDPNINPTFGASFMTKTVQ [I14F],2.05
17,FVEDSFDPNINPTGGASFMTKTVQ [I14G],2.59
18,FVEDSFDPNINPTHGASFMTKTVQ [I14H],2.87
19,FVEDSFDPNINPTKGASFMTKTVQ [I14K],2.29
20,FVEDSFDPNINPTLGASFMTKTVQ [I14L],2.14
21,FVEDSFDPNINPTMGASFMTKTVQ [I14M],2.55
22,FVEDSFDPNINPTNGASFMTKTVQ [I14N],2.81
